Assay: label from the status in PepcDB records

Row | Sequence | protein production
1 | MGTSDEEIDRLLGKLTPRARALLLNGATTWRTRAEPAVELRELVMSDGPAGVRGEAWDERSTSLLLPSASALAATWDEALVEDLGGLLAAEARRKGVDVLLAPTLNLHRSPLGGRHFECLSEDPELTGRIGAALVRGIQAHGVAATAKHYVANDSETDRLTVDVRVGERALREVYLAPFEAAVAAGVRLVMAGYNAVNGTTMTANALLTDPLKSEWGFDGVVVSDWGAVRGTTGTARAGLDLAMPGPDGPWGEALARAVAEGAVPEPAVDDKARRLLRLAAWLGALGGRDVSRSPVPGRPADSPGAEGADGGAGAGPSSGAEGLPGRGPAHGAKPSGPRPRRAGDGRALARRAVAAGAVLLANKDVLPLDPEHLGTVAVIGAHAARTRTQGGGSAGVFPRGEVSVLDGIRAELRGRARVVHVPGPRPDGPAPPLDPDTCTDPRSGLPGVLLRMLDADGRELYAERRRGGRLLEPRLVPGAHTVEIRARLCPRTGGSWSLGVAGFGRMSLTTDGRTLLEGDFPPSTDDPAVMHVNPPAQYATADLTAGRDTLLVARRELAPGTGRATVLVAAPPAPDVTASLAEAVRAAGAADAAVVVVGTTEHGESEGYDRTDLALGATQDALVRAVAAANPRTVAVVNSGGPVELPWREQAGAVLLAWFPGQEGGGGLADVLFGHAEPGGRLPTTWPAVLADAPVTRTRPDGGRLDYDEGLHLGHRGWLRHHRTPAYWFGHGLGYTTWRYEELTVPPVTRAGDGLTVRVRVRNTGARAGREVVQVYLARPASALDRPARWLAGYTAVRARPGETVTATVRVPARALRHWSVAEHAWRTEAGPCRVLAGRSAGDVPLAAEVEVVPTASA | failed
2 | MGVATMVTDKYQKCIDACNRCSQACYECFKACLNEPDVNARRTCISILFECAQMCQMSSALMSMDAQFAIDHCKLCSVICDKCAQECSMFQDPHCQKCANECRTCSNECRMMSGMLEHHHHHH | not failed
3 | MGVLAEVYEMLNTCNRCGFCHTACKTYKVDGAETMVSRGRVQLIKAVADGVIEADADYEDSINSCLLCGECAVACPSGVSAKELVMAARRDLKLRHGLEHHHHHH | not failed
4 | MGVLAEVYEMLNTCNRCGFCHTACKTYKVDGAETMVSRGRVQLIKAVADGVIEADADYEDSINSCLLCGECAVACPSGVSAKELVMAARRDLKLRHGVKPFVKSYALKTLANPNKLERAFKLFGGLGKNVLNKVDGMDYFRGVDIKGMNVAKVPFLNQVPERILVAQPKHKVAFYVGCFLNFSLDDTAHSVVKVLTKNDCEVIIPKEQVCCGLPQYAYGDFETAKVNARKTIDTFMAKDVEAIITACGSCAAMLKEDYLKLFADDAAYLPRVKSFCAKVKEFSEYMAEIGVDESKFHNSTPVKVTYHDPCHMVRGIKVTAQPRQMLKSLPRVEYIEMFEANRCCGASGLVQAFYHEMSTKVTREKAKNIQDSGAEVVATSCPACIMRLQGGVSMAGQKQKVMHVADLMAKAYEN | failed
5 | MGVRLAVRCFVVDGVLIDTGAKSMENEFTSFFQQQDIDQVVITHFHEDHTGCAAFLQRSMGLPIYMNEPMIEYCRQKADYPLYRKIFWGKRDPFAAKPIGATFSSRNATWDVIPTPGHAIDHVVFLNRETGQLFSGDLYCQEKTKVILREEDIPTIIASLQHVLTYDFGDVFCAHAGYLPLEHHHHHH | failed
6 | MGVVLIDGSTVRSFVDDEEQFKKSVDERFAALDLNKDGVLSRSELRKAFESMRLLESHFGVDVVTPQDELTNLYDSIFEKFDTDQSGSVDLEEFRSEMKKIVLAIADGLGSCPITMVLDDDDDNFLKKAADLEASKLEKASS | failed
7 | MGVVRPAEQQSRIAARRVALLEKVDYRLAETPAEREAIYRLRYRAYLKEGAIDANSSGIVTDRYDDLPNSWIFGVFYEGELSSSLRITVASPDHHDCPSMDVFPDFLQPWLAEGKVIVDPTRFVADPTSANRLPELPYLTLRLAYVSCEYFNADIGLASVRTEHQAFYRRVMMRS | failed
8 | MGWQTLKQQSVPARKRLLYLHIPFCATHCTFCGFYQNKLRDDSTATYTRYLLQELAMEADSPLHQSAPIHAVYFGGGTPTALAADELSQIIRAIRTSLPLAPDCEITVEGRAMDFDDERIDACLDAGANRFSIGIQTFDTRIRQRMARTSDKQQSIRFLERLCGRDRAAVVCDLMFGLPGQTPEIWREDLAIVSDLPLDGVDLYALNLLPTTPLAKAAENQRVALPDVVARRDFYRTGAAFLADSGWHQLSNSHWARTTRERNLYNLLIKQGADCLAMGSGAGGNINGQAYMMERSLERYYQQIDQGQKPIMMMTPASSTGPWQHQLQAGIEVGRIKLPQLTQHARELQPLLSQWHQAGLTCDDSTCLRLTNDGRFWANNLMQALQQIIPQLNAEEHAHLEHHHHHH | failed
9 | MGYFYVLLAAFLWGLIGPLSRMAFQEGLTPLTVAFYRALLSWIFFLAHAARTGGLRVAPRDLPVFPLFGLLGVALFYGAYQLAVLYGGAALASVLLYTAPAWVALLSWAFLREPPTARSWGAVALTLLGVGLLGLGGGSEVRFGVRAFLFGLASGFFYALHYLLGKLYLGRYATPTFFAYALPVAALALAPWAEFGPLTPRALGALLALSLFSTYGAYLAFYAGLRRLPATVASVVATLEPVVAVVLAYLLFGEVLSPLGYFGALLVILAVLLAVRR | failed
10 | MGYNTIPAGKDLPNDIYVAIEIPANASPIKYEIDKDMDALLVDRFMATPMFYPANYGYINNTLADDGDALDVLVITPYPVAPGSVIRARPVGVLKMSDEAGGDEKLLAVPHEKLTQLYNDIHDIDDVPQLLKDQIVHFFEHYKDLEKGKWVKVEGWENADAARAAIVKSAAAYKG | not failed
11 | MGYRNLQDCVFDLEARGDLVRIDVETDPNIEIGAIQRRVYQAGGPALLFTRVKGCRFPMLGNLFGTMARTKFIFRDTLDDIRRLVELKINPTAVLKNPKEYAGAPLAALRLLPRQVSRGPILGHRTTIAELPQLKSWPMDGGPFVTLPQVYSESPKRPGFRFSNLGMYRVQLAGNDYRLNEEVGVHYQIHRGIGVHHAEAIERGEPLRVNIFVGGAPSMTVAAVMPLPEGLPELSFAGLLAGHRLAMVCRRGELPMPAEADFVITGTIDPNKTLPEGPFGDHLGYYSLAHPFPVLRVENVWHRDDAIWPFTSVGRPPQEDTTFGAFIHELTGALIPEVLPGVKGVHAVDAAGVHPLLLAVGSERYVPYEAERVPRELLTIASAILGNGQLSLAKYLFITPNEDNPPDIHHIDEFLTFILERADWRRDLHFHTRTTIDTLDYSGSGLNEGSKVIVAAAGPKRRDLPTEVPGGLRLPDGFTTPHVCLPGILAVTGPAFPGYGDNGAPDMERFCASFAPDDPINRFPLVVIVDDSAFTSRTLNNFLWVTFTRSNPAADIHGIGSSVRCKHWGCGGALVIDARVKPHHAPPLLDVPEIERRVDALGAPGGPLRGII | failed
12 | MGYSRSREIRRWEMRKMKAAGLSVEEAYSDEEGGLVPDLVYKESSSEFLGNKVFDPVLRNKIEIEKPGTEISAVAKRGSVFLSVHPRSYVAPSASGEVDREVSQRLPIESFRDDLMEFVGKHRVIVLVGETGSGKSTQVPKYLYQEGYGDKGIIGCTQPRRAAAISLASTLKREMGCAVGYSIRFDSTTTQDTKIRYMTEGILLQELLADKMLRRYSVVILDEAHERTTNLDISMGLLKLALKERDDLRIIIMSATIEAQKLCNYFGCPAFNIEGRSYPVETRYLSVNVDDYVEWTVKKILYIHENCGEGDILVFVTGRDDVEGVVGIVNHCIRNKCFGEGSEGGRGLKVLPFYSQLPEEMQNRVFQAEKDVRKCIVSTNVAETSLTIPNIGYVIDTGLQKISVYSYDTGESLVTVPISRANADQRTGRAGRTRPGVCYRMYTADTYENDMLPSPVPEIQRTNIHNVVLLLLKHGVHDILGFDFVDRPSEELIQGALLGLHRLGAVCSRGLLTKVGKEMSELRLDPPLARMVLGAAGYGAVNEIASIASMLSVHEVFHRDFDKSSPLCHQGCDFLTLLNIFNAFIRQKNRSEWCNKMKVSEHALKRATETKRAVLMSLREMGVPISSTRSLDKIQRCIISSVHYNVARRRGKGYVCLSNFRACMVHPSSVLADSYSQYIIFYKHLSTRAEYMYCCSNISPQVILEEAGCYYRDRNGVFNIQKHPVIEDGLDREHNPFGSACSLTGARMPGKIALDENLYDRFEKWNESEESDEEPPKKIRRTRI | failed
